How the values were obtained:
[1] = target: Gq proteins
[2] = target: Gq proteins; remark: listed apart in the source
[3] = target: Gq proteins; remark: listed apart in the source

Ca^2+ signal increase in HEK 293T cells [1]	light-induced increase in Ca^2+ signal (Calbryte 630 AM) in HEK 293T cells [2]	Ca^2+ transients (Calbryte 630 AM) in primary mouse astrocytes [3]	Substance
1 ΔF/F			human OPN4 (from UniProt Q9UHM6) (receptor)
	3 ΔF/F	8 ΔF/F	Chicken Opn5 (receptor)
0.5 ΔF/F			opto-a1AR (receptor)
	3 ΔF/F		Turtle Opn5 (receptor)
